In the DeepSol protein solubility set:

test: soluble on expression in E. coli; label from the status in PepcDB or PDB records

Sequence	soluble on expression in E. coli
MKLYFIINPAAKNGRSVSIWKQLQPLLDREGIAYQAYWTSRKGEGKEIARRIGEESVEPTVIAAVGGDGTVHEVVNGAGSFPHVAIGCIPAGTGNDFVRGFRLARKPKQALQRLLSDVRSGKDLAFDLGRFASSAVPDGVFANSIGCGFDAHIARMANRSKWKGRLNRFGLGSFIYVFYLVRELFRYQPVDLDICVDGQNYSFLKAWLATASNHPYYGGGMRIAPSVRADDGLLHVTVVGPMPRWKILALFLTVFWGGHVRMKEVCVFTGRNVRIRPAAPVLIHADGEDAGEGEVFAWIEPGRLRVIGVKTR	not soluble
MNDFHRDTWAEVDLDAIYDNVENLRRLLPDDTHIMAVVKANAYGHGDVQVARTALEAGASRLAVAFLDEALALREKGIEAPILVLGASRPADAALAAQQRIALTVFRSDWLEEASALYSGPFPIHFHLKMDTGMGRLGVKDEEETKRIVALIERHPHFVLEGLYTHFATADEVNTDYFSYQYTRFLHMLEWLPSRPPLVHCANSAASLRFPDRTFNMVRFGIAMYGLAPSPGIKPLLPYPLKEAFSLHSRLVHVKKLQPGEKVSYGATYTAQTEEWIGTIPIGYADGWLRRLQHFHVLVDGQKAPIVGRICMDQCMIRLPGPLPVGTKVTLIGRQGDEVISIDDVARHLETINYEVPCTISYRVPRIFFRHKRIMEVRNAIGRGESSA	soluble
GKKDTQSITLEELAKIIKKCKHVVALTGSGTSAESNIPSFRGSSNSIWSKYDPRIYGTIWGFWKYPEKIWEVIRDISSDYEIEINNGHVALSTLESLGYLKSVVTQNVDGLHEASGNTKVISLHGNVFEAVCCTCNKIVKLNKIMLQKTSHFMHQLPPECPCGGIFKPNIILFGEVVSSDLLKEAEEEIAKCDLLLVIGTSSTVSTATNLCHFACKKKKKIVEINISKTYITNKMSDYHVCAKFSELTKVANILKGSSEKNKKIM	soluble
SQQALRILEVRSAYCKNDFEWDNMKRLAFKNVDDSNTRLMREYVLETSHVETDSDK	soluble
MGSDKIHHHHHHGDGNITTENIPVSEYDCLELEGGGMVVNYTQSDAPEGLEIKTDRNIFEKYEFNVENHKLKIRPKKEFRKHTNFRPTEFMVTANSRNLKKLAAAGSTHVNINSPLQAEEFEAGLAGSGIIQFHDTASFTNLKIEIAGSGDFVGHKVYCEELNGDMAGSNTIVLGGTVGIAEFSIAGSGTVRAFDCTMDELECKIAGSGDIEAFVVNKIKAEIAGSGSVKYKGDPQDIQKKVMGSGKIEKVE	not soluble
MRKEKIRLEYMLKAGSGNIVWSIISTPSGLETWFADKVIFKDKVFTFYWGKTETRQAEVTNFRVNSFIRFRWLDDEDPKAYFELKMVYNELTSDYMLEVIDWAAPDEVEDTKELWDSEIEKLKRVSGLLEHHHHHH	soluble
MADFDTNPTSLYSIKGIVILDQDGNRVLAKYYDRTTFGTVKEQKAFEKSLFSKTSRNTSADILLLDGVTCLYRSNVDLYFYVLGSTRENELFLDATLTCLYDAVSVVLRKNVEKKALIDSMDTIMLIIDEICDEGIIMETDAQAVVQRTALKSDEVSFSDQSVSQIGFSFMKSANEQFKWSLLK	not soluble
MSMLKKTKEFFGLAPYEAEHEDAYYADEPRYEGTAAYAPEYRERDYGYAPEAPAPVAPSPAPRSYQSTIVPVELHSFEDAQVIGGAFRDGDAVVFDMSLLSREEARRIVDFAAGLCFALRGKMQKIDSVTFAVVPELSNISTSELERAARIRAAALEHHHHHH	soluble
MDAVQDPAAGSLSRSRIVPPQVPAEYSLRPAIRNLLDRNPHSRVLMFSAPAGFGKTCALAALARERTVADQAVAWLSLAEEDDDPARFCRQLIEALGEAVPQLGDDAQTYLQNTMRVPVVAVIESLLGDLDRYARPLLLVLDDLHLVSNPDIFTGLNRLVQYAPPGLVLALGTRSQPALSLATWRAKGLLLEIGLEELRLGFEETREYLERSGLYLDEPCLKALYGQTEGWVVGVHLVSLWLRQQPQVQEMALLDGDKQAVSAYLLAAVFERLPGDLQEALLALGVASQLSGDLANALTGRQ	not soluble
AIAEAEGMLPPQSLSAKFEGSFAYLTVRDRLPTILTKVVDTLHRNKDNFYKEYGEEGTEAEKRAISFLSRLRNELQTDKPVLALTDNAEDTQAWNEYMERQQDLMENGQLVSWFKSPWLYVECYMYRRIQEALYMNPPMHNFDPFKEGKTQSYFESQQAIKYLCTYLQELITNMENMTEIQLRENFLKLIQVSLWGNKCDLSISAGQDNSQKLSPIDSLPDLQRFILVDDSSMVWSTLVASQGSRSSGMKHARVDIILDNAGFELVTDLVLADFLISSGLAKQIRFHGKSIPWFVSDVTKQDFEWTIKQTMAANHKWMSASGVQWKHFMKEGTWSYHDHPFWTLPHEFCDMTVDAANLYSTLQTSDLILFKGDLNYRKLTGDRKWEHTVRFDQALRGFQPAPLCSLRTLKADVQVGLQAGHAEKLSTQDPDWMTNGKYAVVQFSSPHREQ	soluble
ERLFQVFISLGVGKSAIRQHLASLDPTNSRDIEALADELSGKRPLLYRGVAMLLAHHSFAKSLREDAAGMWLQEKRHQLHSGLR	not soluble
MGSDKIHHHHHHMTALSSVDFCLPEHITPEIFLRDYWQKKPLVIRNGLPEIVGQFEPQDIIELAQNEDVTARLVKTFSDDDWKVFFSPLSEKDFQKLPEKWSVLVQNLEQWSPELGQLWNKFGFIPQWQRDDIMVSYAPKGGSVGKHYDEYDVFLVQGYGHRRWQVGKWCDASTEFKPNQSIRIFDDMGELVIDEVMNPGDILYIPARMAHYGVAEDDCLTFSFGLRYPNLSNLIDGISKGFCHQDPDLNLSEFDLPLRLSQSEQRTGKLADENIQAMKQLLLDKLAHSEAFDTLFKQAVASAVSSRRYELLVSDEMCDPDEVRSILEEDGAFLSQDNNCKLLYTENPLRIYANGEWLDELNIIESEVLKRLSDGESLDWAFLSDLANKTEDPETSMDLLLDSICNWVDDGWALIE	not soluble
MGSDKIHHHHHHMKKLRKIIEINEELCNGCGQCISACAESALALVNGKARVVSDNLCDGLGTCIGECPTGALKIVEREAEEFDAQAVEIARSCPSTRMVMTFTAGTPSSEARPSALSHWPVKIRLIPENAPFLKGADLLVVADCVPVAFSDLHGRFLPGKVVMAGCPKFDEAQPYIEKFAGIFHNAGIRRVTVLTMEVPCCSGLPILVRKGMELAGVRVPMEVAVISTRGEILDKTA	not soluble
ASKPVEPAKPAEPTKVEFEEKQGKRGVKLGTVAIILSIIFGGGLAYKLHEQQADYQAQIAQLQNQLEKAQASMKQELNQVKEETIEKATTVTHKAEVVLGQQQKSIESLQLAVADVKGRRPNDWLLAEADYLVKLAGRKLFLEHDVESATQLMESADQRIAALNDPSLVKLRKAMANDITKLRTVPLIDRDGLVLRLTALQQQVDKLPLANALLPEAQVVAQHEVSEDISNWQDNLMTSLKDFSENFITFRTRDGNVIPLLSPEQHFYLKENIKAKLETAIKAVYQEQGEIYTTSLTTADKWAMAFFNQDDNAVKEFNKALNQLSQQNIQVEYPAKLESQSQLSDVIRERLRREVTTMTGTGDK	not soluble
MGTVHARSLDPLPMNGPDFGSPDDADLVEVEPQKKQEILENKDVVVQRVHFEGLGRTKDDLVAHEIGQVFKAKNLIEVMRKSHEAREKLLRLGVFRNVEVLIDTCEGEDAVPNGLDVTFEVTELRRVTGSYNTMVGNNEGSMVLGLKLPNLFGRAEKMTFQFSYGTKETSYGLSFFKPQVGNFERNFSVNLYKVTGQFPWSSLRETDRGVSAEINFPIWKTSHTLKWEGVWRELGCLARTASFTIREESGHTLKSSLSHSMVIDSRNASILPKSGALLKINQELAGYTGGDVSFLKEDFELQLNRQLTWDSVLSTSLWGGMLVPIGDRPSSIADRFYLGGPTSVRGFSMYSIGPQSEGDYLGGEAYWAGGVHLYTPLPFRPGRGGFGDLFRTHFFLNAGNLCNLNYGEGPGAHLRRLAECIRWSYGAGLVLRLGNIARLELNYCIPMGVQSGDRICDGVQFGAGIRFL	soluble
MAKATYACVECGYRTPKPLGRCPSCGSWESFQEVAPAPASRRAKPSPLPLLALSQVDEAEERRFSSGLSEVDRVLGGGFVTGEVVLLGGEPGVGKSTLLLEMAKRMPQRVYYVAGEESPAQIKLRAQRLGVKDLLLVRETRLEPLLALLEEDPPEVLFVDSVQTLEAGGSPGSLVAVREATSALVRFAKERGVAVVLVGHVTKEGVVAGPKSVEHAVDATLYLETAGPYRVLRSAKNRFGPVGEIGVFRMEEAGLLEVENPSEAFLKERPLGVPGSAVALALAGERALALEVQALAAKTPFPAPRRVVQGLDGRRVDVVLAVLERRLGLPLANLDVYVNLAGGLKVQDPGLDLAVALAVYSAVVGRPLPVDLALVGEVGLAGEVRRVAVLERRLREGERAGFGRFLHPGNLKRLQEAVEAYLA	soluble
MTKKVAIILANEFEDIEYSSPKEALENAGFNTVVIGDTANSEVVGKHGEKVTVDVGIAEAKPEDYDALLIPGGFSPDHLRGDTEGRYGTFAKYFTKNDVPTFAICHGPQILIDTDDLKGRTLTAVLNVRKDLSNAGAHVVDESVVVDNNIVTSRVPDDLDDFNREIVKQLQ	not soluble
MSKSENLYSAARELIPGGVNSPVRAFTGVGGTPLFIEKADGAYLYDVDGKAYIDYVGSWGPMVLGHNHPAIRNAVIEAAERGLSFGAPTEMEVKMAQLVTELVPTMDMVRMVNSGTEATMSAIRLARGFTGRDKIIKFEGCYHGHADCLLVKAGSGALTLGQPNSPGVPADFAKYTLTCTYNDLASVRAAFEQYPQEIACIIVEPVAGNMNCVPPLPEFLPGLRALCDEFGALLIIDEVMTGFRVALAGAQDYYGVVPDLTCLGKIIGGGMPVGAFGGRRDVMDALAPTGPVYQAGTLSGNPIAMAAGFACLNEVAQPGVHETLDELTTRLAEGLLEAAEEAGIPLVVNHVGGMFGIFFTDAESVTCYQDVMACDVERFKRFFHMMLDEGVYLAPSAFEAGFMSVAHSMEDINNTIDAARRVFAKL	soluble
MPVNSILGVFAKSPIKPLQEHMDKVYDCASLLVPFFEATITGNWDDAVQIRKQISLAEKQGDSLKREIRLTLPSGLFMPVERTDLLELLTQQDKIANKAKDISGRVIGRQLLIPQALQVPFIAYLQRCIDAVGLAQQVINELDDLLEAGFRGREVDFVAKMINELDIIEEDTDDLQIQLRRQLFALESELNPVDVMFLYKTIEWVGGLADLAERVGSRLELMLARVLEHHHHHH	soluble
ENKTLDEVTSDLVSRGAKFVGEELQLDVGGLLLHFFNYNGKIVVSSMKKVGFLQTLNRKRLENHPSFVFLEKEVPKSVFLEVFVDLYTLFDKLLGFSPRSSLLLIGYEEDGLIKYRLEVM	not soluble
MGSDKIHHHHHHMKIAYYLPSLQAPGGIERIVTFKANYFAEHFEGYDITIITSEQMGKAPHFPLSPKVKHIDLGVSFDLPYSQSIVSKVLKYPFRYYRFKQRLSNLLNELKPDITISTMRRELNFITKLKDGSLKIGEFHVSRYAYGAEALKRKSPIVNMIKKRWANRFVKNLSKLSRVIILTSEGAKDWPELTNISIIPNPISTPVEGKQTDILSHNAIAVGRYAPQKGFDMLIPAWSIVAQRHPDWKLHIYGEGDLKEKFTKLIDELQLNNNCLLHHTVSNIAEKYCMSSIFVLSSRYEGFGLVLAEAMSCGIPCVSFDCPHGPSNIIKDHEDGLLVEKENIKELADKICYLIENENVRIKMGHKARENVKRFLPENVMPQWKNLFESLTYSSK	not soluble
LKAVNAKKDAKKIDFYEDFSCPHCAELGEVTDGPMTKAIENGDIVVNLRILNFLDRDGDDGNSTKAGAAALAVAQSGDWETYWNYRALLMKEQKNIYGKWGDNDFADVAKSLGASDEVTQKIREGGAKEDFRKFAEANSKKLEKDGGSVSSPRVFIDGKEVKNGIETWVEQATS	not soluble
